Test results taken from patent publication US20190194660A1 (UNIVERSITY OF SHEFFIELD, published 2019).

Target: T1, endogenous NXF1 in mouse neuronal N2A cells (mouse (endogenous in mouse neuronal N2A …, UniProt Q99JX7 2-618))
T1 construct: Detected with anti-NXF1 clone 53H8 after anti-FLAG immunoprecipitation; also called TAP/NXF1; nuclear export factor 1
T1 sequence (looked up): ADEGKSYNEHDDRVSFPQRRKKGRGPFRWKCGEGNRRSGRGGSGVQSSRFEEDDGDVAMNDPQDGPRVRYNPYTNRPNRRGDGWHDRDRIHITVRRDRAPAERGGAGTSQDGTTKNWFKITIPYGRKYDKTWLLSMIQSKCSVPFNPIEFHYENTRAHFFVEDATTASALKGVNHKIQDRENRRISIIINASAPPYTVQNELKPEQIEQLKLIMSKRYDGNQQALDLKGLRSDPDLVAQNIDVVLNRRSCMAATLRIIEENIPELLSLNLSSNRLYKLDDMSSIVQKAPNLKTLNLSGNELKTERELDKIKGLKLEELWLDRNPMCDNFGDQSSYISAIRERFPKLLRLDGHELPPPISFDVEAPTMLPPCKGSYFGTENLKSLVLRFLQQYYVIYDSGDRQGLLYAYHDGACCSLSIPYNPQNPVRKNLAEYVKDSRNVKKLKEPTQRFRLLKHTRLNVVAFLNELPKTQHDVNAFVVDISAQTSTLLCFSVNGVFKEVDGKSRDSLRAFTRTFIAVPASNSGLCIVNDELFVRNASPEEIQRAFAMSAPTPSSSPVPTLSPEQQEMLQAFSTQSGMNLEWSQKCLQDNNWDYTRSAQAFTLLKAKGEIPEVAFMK
Test: anti-FLAG co-immunoprecipitation of endogenous NXF1 from transfected N2A cells (FIG. 6)
Description: Co-immunoprecipitation of endogenous NXF1 is assessed using anti-NXF1 antibodies;

binding result: no binding
B1: FLAG-tagged SRSF1 11-196 quadruple mutant (SRSF1-m4) (other)
chain: AGNNDCRIYVGNLPPDIRTKDIEDVFYKYGAIRDIDLKNRRGGPPFAFVEFEDPRDAEDAVYGRDGYDYDGYRLRVEFPASGAGTGRGGGGGGGGGAPRGRYGPPSAASENRVVVSGLPPSGSWQDLKDHMREAGDVCYADVYRDGTGVVEFVRKEDMTYAVRKLDNTKFRSHEGETAYIRVKVDG
notes: also called p3xFLAG/SRSF1 (11-196)-m4; dominant negative mutant SRSF1-m4; not shown: FLAG tag from the p3xFLAG vector (Sigma)
